We go through one molecule from patent US20170129954A1 (PROTHENA BIOSCIENCES, published 2017).

Assay [1] addresses T1, human MCAM Y318A mutant (shotgun mutagenesis library, on BHK cells) (human, UniProt P43121 24-646).
T1 chain: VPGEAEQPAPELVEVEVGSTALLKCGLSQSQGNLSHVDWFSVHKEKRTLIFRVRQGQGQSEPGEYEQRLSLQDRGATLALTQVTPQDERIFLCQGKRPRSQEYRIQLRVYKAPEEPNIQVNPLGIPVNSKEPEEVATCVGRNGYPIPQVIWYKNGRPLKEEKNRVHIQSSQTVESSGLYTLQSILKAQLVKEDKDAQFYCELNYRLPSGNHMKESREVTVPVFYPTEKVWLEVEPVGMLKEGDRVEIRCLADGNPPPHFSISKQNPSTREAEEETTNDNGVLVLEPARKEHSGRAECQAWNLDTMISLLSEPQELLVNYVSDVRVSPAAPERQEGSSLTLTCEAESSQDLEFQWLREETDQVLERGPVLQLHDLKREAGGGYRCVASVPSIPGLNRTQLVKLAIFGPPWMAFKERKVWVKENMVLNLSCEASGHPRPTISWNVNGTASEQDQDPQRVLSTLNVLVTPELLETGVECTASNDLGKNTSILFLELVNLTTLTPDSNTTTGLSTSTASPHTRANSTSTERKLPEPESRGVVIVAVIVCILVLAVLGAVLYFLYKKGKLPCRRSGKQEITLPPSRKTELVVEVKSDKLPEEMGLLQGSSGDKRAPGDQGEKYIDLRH
Kind of assay: shotgun mutagenesis library, immunofluorescence on BHK cells, 0.5 µg/mL antibody. The procedure:
(§1) Secondary antibodies from Jackson ImmunoResearch were used at 1:400 for MAb and sera detection.
(§2) The mutation library was assayed for surface expression (mouse sera binding) and monoclonal antibody binding, in triplicate. Each raw data point was background-subtracted and normalized to the wild type MCAM reactivity values. The mean monoclonal antibody binding value for each clone is plotted as a function of its mean surface expression value (FIG. 1, gray diamonds). Thresholds of <30% monoclonal antibody reactivity and >50% mouse sera binding were applied to identify clones (FIG. 1, black diamonds) that were negative for monoclonal antibody binding but positive for surface expression.

Assay [2] has as its target T2, human MCAM C320A mutant (shotgun mutagenesis library, on BHK cells) (human, UniProt P43121 24-646).
T2 chain: T1 chain with A295Y, C297A
The description is as above. The procedure: as §1, §2

Changes are numbered by the printed parent chain.

B1: mouse anti-human MCAM monoclonal antibody clone 1749.1.3 (antibody, V domains shown)
VH: DVKLVESGGDLVKPGGSLKLSCAASGFTFSSYIMSWVRQTPEKRLEWVATISSGGSSTYYPDSVKGRFTISRDNAKNTLYLQMSSLKSEDTAMYYCTRDDDYDVKVFAYWGQGTLVTVSA
VL: DIVMSQSPSSLAVSAGEKVTMNCKSSRSLLNSRIRKNYLAWYQQKPGQSPKLLIYWASTRESGVPDRFTGSGSGTDFTLTISSVQAEDLAVYYCKQSYNLLTFGAGTKLELK
notes: Mouse hybridoma monoclonal antibody; also called m1749
Take B1: the binding result in assay [1] and in assay [2] was “no binding (tested: <30% WT)” throughout.
